± gives the half width of the 95% confidence interval.
Key:
[1] = folding stability dG unfold from trypsin proteolysis; higher = more stable
Summary of the method: (§1)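 Sequencing followed digestion of designed mini-proteins with trypsin and chymotrypsin, each at 11 concentrations in threefold dilutions together with a no-protease condition. The mini-proteins were under 80 residues, had no cysteine, sat in a PA-tagged cDNA display construct, and were kept only if AlphaFold2 dimer inter-PAE was above 15. From the counts, Bayesian fitting gave K50, and unfolding free energy was derived against a sequence-predicted unfolded-state K50 and a shared folded-state K50, per protease or combined.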

[2] = folding stability dG unfold (combined trypsin and chymotrypsin); higher = more stable
Summary of the method: as §1

[3] = folding stability dG unfold from chymotrypsin proteolysis; higher = more stable
Summary of the method: as §1

Sequence	folding stability dG unfold [1] [kcal/mol]	folding stability dG unfold [2] [kcal/mol]	folding stability dG unfold [3] [kcal/mol]
SAGWYYIIIIKHDNKPIVFVIPPEGMPPEGIRDQISEMLGMPPDNVEIDDIVPFDDNQDAEEAVKEALDSAG [r5_900_TrROS]	1.53 ± 0.067	2.09 ± 0.22	2.33 ± 0.14
SAGYKATIIPPDGSEVTIDVKAEDLGPLVEELEKAGLKVESLEVSPDGTAVIPVTSPDGKPYLIVIDLKSAG [r5_645_TrMRF]	0.418 ± 0.032	0.413 ± 0.094	0.305 ± 0.11
SAIEITVMSDSPEEAKEKAKEFANWLQNRMRRDGLPDMPIPIKIEVIPVPPPKPKPKRDPDDGEWKPDPSAG [r14_475_TrROS]	-0.415 ± 0.57	0.487 ± 0.23	0.731 ± 0.34
SAIKIKNVEFNDNGWMEIEIPYPENGREVTIRMDPNGNIQVEEYPPNDGKPKRKTIPGMSIEEILEELLSAG [r14_760_TrROS]	1.08 ± 0.24	0.55 ± 0.33	0.25 ± 0.13
SAIKLPDGFEIKEVEFTPDGNVTIKIEVKKYSFMIYNPDNGQIQHIPPGKEQEITMPPNEPMRIWVIKPSAG [r14_385_TrROS]	1.45 ± 0.13	1.48 ± 0.36	1.58 ± 0.26
SAIRIEEITIDPEYGVITITFDYPMPPGAEKIKFKIFIDGFKIKEIEYEVDPENGWVRMTLTIRIPKDASAG [r14_244_TrROS]	4.09 ± 0.28	> 6	6.5 ± 0.44
SAKEELYIIEIKVYVDGKEVKTITKVITVPEEKLEEKLKELLKKLAEELGLEIKKVEVKIKKLSLEELKSAG [r14_104_TrROS_Hall]	2.79 ± 0.22	2.83 ± 0.34	3.09 ± 0.14
SAKFRPVEIPFEIKLEEKDPEDGKKEEREFDIKVKIMVFPDNGMVFISIEFIELGRPITIMLPPGAPIISAG [r14_587_TrROS]	2.61 ± 0.17	3.08 ± 0.28	3.37 ± 0.092
SAKFRVSISYDPPDGYLTIMFRYPNPNQPITPEEIEEIAREILEERGHKVKIDEIHHEGNYFMIKIKLPSAG [r14_556_TrROS]	2.51 ± 0.11	2.75 ± 0.2	2.54 ± 0.11
SAKFRVTEIHPNGNNFEIRIERYDPNGEKKKLPIPVNADNMQIDEVDGDKITIYFPNNGREITLPLEDLSAG [r14_947_TrROS]	-0.594 ± 0.34	-0.152 ± 0.36	-0.114 ± 0.42
SAKIEIIKKDGEYYLRITLENGKKKTIKLKGIKKIEIKNGKIYIYNKKTGKKIILKNAKIKKIEIEKVPSAG [r14_83_TrROS_Hall]	3.1 ± 0.18	3.87 ± 0.41	4.6 ± 0.18
SAKIEVYELPDGSKEIVFEFGDKVIRVTFFPDYPLAVVEVFDPPKDEVVKTIPVRADDLEDTIKKILEESAG [r14_583_TrMRF]	1.8 ± 0.096	2.67 ± 0.049	3.07 ± 0.049
SAKIRIPLEKLIDLAESIPGVEVLYDPETGLLLAFIPEIGMLILIRLEEDPEDPDNVEVDIEIIPLSPFSAG [r14_604_TrMRF]	2.75 ± 0.16	2.4 ± 0.19	2.08 ± 0.22
SAKITFIAPGGKPIVIDIDPNYEVIEVIEFPELGVVLILLRNPETGELYAILITPPDYRPTYIELIPLDSAG [r14_311_TrMRF]	3.43 ± 0.096	4.17 ± 0.2	4.29 ± 0.15
SAKKIILIKAESEEELKKAIEEAKKLAEEGKKVEIIIETPKGLILIEIDVKTKKIKIKNLETGEEIELESAG [r14_423_TrROS_Hall]	1.49 ± 0.1	1.19 ± 0.23	0.375 ± 0.1
SAKKIPLDDAKIRIKMESPNGMIMEFPIKNVQIDPKNGKLSFEFPMRIYNPDNGKERPMRMKIDEIVPVSAG [r14_825_TrROS]	0.107 ± 0.37	0.22 ± 0.19	0.299 ± 0.25
SAKKITLTPPNGKKITITVHPDGSITITYEKGKITLPGHPGAKIKKATVDPKKGYITIIVNDKPIVIPISAG [r14_276_TrMRF]	1.66 ± 0.044	2.39 ± 0.12	2.83 ± 0.071
SAKKKFKVKEVKVTKHKGKFKIGDKEIEKELYTVNVVIEDENGNKYPFTFTFEKPEELKKFVEKLEEEKSAG [r14_36_TrMRF]	3.03 ± 0.17	3.61 ± 0.2	4.075 ± 0.028

Sequence	folding stability dG unfold [1] [kcal/mol]	folding stability dG unfold [2] [kcal/mol]	folding stability dG unfold [3] [kcal/mol]
SAKKKITVKIKIEYDKETGTLKVEVEITYPDGKKVKVEAEIDLKTGKITIKVYDKNGKLIAEIEIELPPSAG [r14_524_TrROS_Hall]	2.68 ± 0.25	2.61 ± 0.36	2.35 ± 0.092
SAKKKVIEVELPPDAKVVTIKLEGKGVEITFVEVDGKLVITVRYKDDPSKTVTIVVKTKEEADALLKALSAG [r14_716_TrROS_Hall]	1.23 ± 0.082	1.66 ± 0.27	1.85 ± 0.068
SAKKLIIKVEVETFDEETGELKTEERTIEADTLEDALAEIERELPPGARVRIEVFDADGKLVETIEIELSAG [r14_234_TrROS_Hall]	4.41 ± 0.23	3.92 ± 0.15	3.1 ± 0.091
SAKKTIVVPVEKLKELLDALKEAGYEVKVEYNKENPVVTVTITVKDKNGKELKIELVVDKKTGLVTIKLSAG [r14_169_TrROS_Hall]	1.97 ± 0.077	2.26 ± 0.13	2.45 ± 0.051
SAKLAKELAEELAKEILPKFPNIKAVKVEVEPLGDYAIATIIWEKENGKPIISKAIIEKNKKILKVDISSAG [r14_719_TrMRF]	1.02 ± 0.047	1.19 ± 0.19	1.26 ± 0.043
SAKLIRDLLRDHGFPIKNIDVQKNPNGKTYISIEIKMYTPEYKNDEGRPKPRPVEMTATFPADDLLDALSAG [r14_16_TrROS]	0.91 ± 0.16	0.676 ± 0.25	0.507 ± 0.25
SAKLPEGAVVVIEDIEEKEVNGKKYKTIKISVYDKKNKGKLIAETEIVVENGKIVEKKVKVKKVSKEELSAG [r14_651_TrROS_Hall]	0.887 ± 0.027	1.61 ± 0.14	2.05 ± 0.14
SAKLTLEIEVNGKKYKAEITSVDEETGTVTIKVTFPDGSTQTLTLTFPPAPPPKVEKVYVVDKDGKLLKSAG [r14_466_TrROS_Hall]	0.644 ± 0.025	1.45 ± 0.12	1.83 ± 0.089
SAKMSPEMRELVERLQDLYNENGYKVKIEMSNKPGMIRINVQMPNPRKKRKIKEALRGDGFPITRVEIYSAG [r14_284_TrROS]	1.62 ± 0.077	1.36 ± 0.23	0.929 ± 0.25
SAKMYLVIIEIKKDGKTYKLIIIIPEEDENLTEEEILEKIRELAEKLNLEIEKIEVIPLEEAKKLLEELSAG [r14_953_TrROS_Hall]	3.66 ± 0.074	5.23 ± 0.13	5.25 ± 0.13
SAKNIAIKVSIWPFDPEDGEPQTFEITYPFPDPEDAIDEIEEFLPPGYRVKIEVFDPDGKPLKEIEIRISAG [r14_234_TrROS]	1.93 ± 0.1	2.09 ± 0.19	2.28 ± 0.048
SAKPIPLKNVTINMYKDEKGNYYFKVTLNDKFIGEFEFETTEEALEGAIELAKEIEKIYGPNNIKIKNESAG [r14_791_TrMRF]	2.33 ± 0.2	2.64 ± 0.31	2.7 ± 0.067
SAKTIKIEIEVKPEKLEEVLEEIAKALAEKLGLPEDVKEIKIEVTKIEVEKVKVDGKEYVKVKIEIKVESAG [r14_736_TrROS_Hall]	3.04 ± 0.19	3.59 ± 0.32	3.97 ± 0.28
SAKVITIKLKIKVKTEEELEKAKELADELAKKLAEEGKKVKVEVVKIEVEENENGEKTVTIEIKIYLEPSAG [r14_48_TrROS_Hall]	3.36 ± 0.22	3.6 ± 0.35	3.72 ± 0.21
SAKVSHLEFSLPNSVVTPEDLLAALEKLGFPPSKIKKMEIVKVKDNSYVVKIYLENEDGSDSIITLHLPSAG [r14_30_TrMRF]	0.515 ± 0.078	1.78 ± 0.11	2.39 ± 0.066
SAKYYFITVEIYMRTGGGPRKMDITVMIPPEEMPPEDVKEIAKEIADWLAEHHPGFEVKVTIIPPDDMKSAG [r14_723_TrROS]	2.39 ± 0.092	3.74 ± 0.47	4.07 ± 0.16
SALEEEVKKRAEEIAQEIKEKFPNVKEKVVEIELPLPNGTKLKATVTISRSINEKGIEYKIKIEVSEGLSAG [r14_788_JUSTAS]	3.22 ± 0.081	3.68 ± 0.17	3.99 ± 0.12

— the supplement of paper PMC12764529
